This is an account of results in the RNAGym collection of RNA variant scans (doi:10.7554/elife.90254).

B1: LINE1-mini (parent)
chain: GGCAGAGCUCAACACAGCGUGGCAAAGUGGCUGUGGCUAGACUGCC

This data set covers variants of B1. Briefly: self-cleavage, relative activity (ratio to wild type); higher = more cleavage; in vitro, sequencing; the parent is a self-cleaving ribozyme.
As for G35U G40A, the self-cleavage was found to be 0.09.

With G35U G40U, the self-cleavage was determined as 0.12.

As for G35U G40C, the self-cleavage was found to be 0.06.

On to G35U C45U, for which the self-cleavage was 0.12.

Turning to G35U C45G, the self-cleavage is 0.07.

As to G35U C45A, the self-cleavage was 0.12.

Take U34C C45A: the self-cleavage was found to be 0.05.

In the case of U34C C45U, the self-cleavage came out at 0.14.

On to U34C C45G, for which the self-cleavage was 0.11.

With G33U G40A, the self-cleavage was 0.03.

For the variant G33U G40C, the self-cleavage came out at 0.05.

G33U G40U: the self-cleavage is 0.14.

Turning to U34C G40A, the self-cleavage was 0.11.

Turning to U34C G40C, the self-cleavage was 0.02.

U34C G40U: the self-cleavage is 0.1.

For U34A G44A, the self-cleavage amounted to 0.06.

Consider U34A G44C, for which the self-cleavage was 0.04.

As for U34A G44U, the self-cleavage is 0.11.

For the variant G36C C42U, the self-cleavage is 0.09.

Take G36C C42A: the self-cleavage was found to be 0.05.

In the case of G36C C42G, the self-cleavage is 0.07.

G36A G40A: the self-cleavage amounted to 0.29.

With G36A G40U, the self-cleavage is 0.47.

Consider G36A G40C, for which the self-cleavage turned out to be 0.27.

Take G35C G36A: the self-cleavage amounted to 0.05.

On to G35C G36C, for which the self-cleavage is 0.03.

As for G35C G36U, the self-cleavage stood at 0.09.

Turning to G36U C37G, the self-cleavage turned out to be 0.05.

As for G36U C37U, the self-cleavage was found to be 0.03.

Turning to G36U C37A, the self-cleavage was 0.05.

Turning to U34C G36C, the self-cleavage stood at 0.08.

On to U34C G36U, for which the self-cleavage came to 0.06.

Consider U34C G36A, for which the self-cleavage worked out at 0.09.

For the variant U34A U43A, the self-cleavage was found to be 0.06.

Take U34A U43C: the self-cleavage was found to be 0.04.

As to U34A U43G, the self-cleavage was found to be 0.04.

U34G C45A: the self-cleavage was found to be 0.06.

With U34G C45U, the self-cleavage was 0.19.

Consider U34G C45G, for which the self-cleavage was 0.13.

With G35A U38G, the self-cleavage was 0.02.

In the case of G35A U38A, the self-cleavage turned out to be 0.1.

G35A U38C: the self-cleavage came to 0.06.

As to G35C A39U, the self-cleavage was 0.06.

For the variant G35C A39C, the self-cleavage is 0.13.

Turning to G35C A39G, the self-cleavage turned out to be 0.09.

For the variant U34G C37A, the self-cleavage worked out at 0.06.

With U34G C37U, the self-cleavage came out at 0.1.

As for U34G C37G, the self-cleavage amounted to 0.07.

Consider G36C C45G, for which the self-cleavage came to 0.04.

Turning to G36C C45U, the self-cleavage is 0.29.

Regarding G36C C45A, the self-cleavage turned out to be 0.07.

Turning to U34G G36U, the self-cleavage worked out at 0.11.

In the case of U34G G36A, the self-cleavage came to 0.07.

For U34G G36C, the self-cleavage is 0.05.

As for G35C C45A, the self-cleavage turned out to be 0.06.

On to G35C C45U, for which the self-cleavage was determined as 0.08.

With G35C C45G, the self-cleavage was 0.03.

Turning to G36A U43C, the self-cleavage stood at 0.31.

In the case of G36A U43A, the self-cleavage was determined as 0.07.

As to G36A U43G, the self-cleavage worked out at 0.01.

Take G35C C46A: the self-cleavage came out at 0.1.

Take G35C C46G: the self-cleavage came out at 0.06.

For G35C C46U, the self-cleavage was found to be 0.06.

In the case of G36C A39U, the self-cleavage was 0.23.

Turning to G36C A39G, the self-cleavage came to 0.07.

In the case of G36C A39C, the self-cleavage is 0.05.

U34G A41G: the self-cleavage is 0.05.

Take U34G A41C: the self-cleavage stood at 0.04.

With U34G A41U, the self-cleavage was 0.17.

In the case of G33U C46G, the self-cleavage worked out at 0.07.

As to G33U C46A, the self-cleavage was found to be 0.07.

Consider G33U C46U, for which the self-cleavage was determined as 0.07.

Take U34C U38G: the self-cleavage stood at 0.06.

U34C U38A: the self-cleavage worked out at 0.11.

Turning to U34C U38C, the self-cleavage turned out to be 0.07.

For G35A C37U, the self-cleavage came to 0.06.

As to G35A C37A, the self-cleavage is 0.14.

Take G35A C37G: the self-cleavage came to 0.02.

With U34C C42A, the self-cleavage was 0.09.

U34C C42U: the self-cleavage was found to be 0.12.

With U34C C42G, the self-cleavage is 0.05.

G35C G40U: the self-cleavage amounted to 0.09.

Regarding G35C G40A, the self-cleavage is 0.1.

With G35C G40C, the self-cleavage was determined as 0.08.

In the case of U34C U43A, the self-cleavage amounted to 0.11.

Take U34C U43C: the self-cleavage worked out at 0.04.

U34C U43G: the self-cleavage stood at 0.31.

As for G35C C37A, the self-cleavage came to 0.08.

Regarding G35C C37U, the self-cleavage amounted to 0.03.

Regarding G35C C37G, the self-cleavage was 0.09.

Take U34G G44A: the self-cleavage amounted to 0.04.

For U34G G44U, the self-cleavage is 0.07.

For the variant U34G G44C, the self-cleavage amounted to 0.07.

Turning to U34A U38G, the self-cleavage was determined as 0.06.

Regarding U34A U38A, the self-cleavage stood at 0.17.

U34A U38C: the self-cleavage came to 0.2.

Regarding U34C C46U, the self-cleavage turned out to be 0.12.

Turning to U34C C46A, the self-cleavage came to 0.16.

U34C C46G: the self-cleavage stood at 0.1.

For the variant U34G U43C, the self-cleavage is 0.07.

Turning to U34G U43A, the self-cleavage was 0.21.

Regarding U34G A39U, the self-cleavage was 0.09.

On to U34G A39G, for which the self-cleavage amounted to 0.07.

For U34G A39C, the self-cleavage turned out to be 0.05.

On to G36A C42U, for which the self-cleavage was found to be 0.15.

For G36A C42A, the self-cleavage was 0.16.

Consider G36A C42G, for which the self-cleavage turned out to be 0.07.

U34C G44C: the self-cleavage amounted to 0.11.

In the case of U34C G44A, the self-cleavage came to 0.12.

On to U34C G44U, for which the self-cleavage amounted to 0.09.

Take G33U A41U: the self-cleavage came to 0.09.

For the variant G33U A41G, the self-cleavage worked out at 0.07.

For the variant G33U A41C, the self-cleavage turned out to be 0.06.

Consider G35C C42G, for which the self-cleavage was determined as 0.04.

Regarding G35C C42U, the self-cleavage amounted to 0.05.

In the case of G35C C42A, the self-cleavage worked out at 0.1.

Take U34A G36A: the self-cleavage came out at 0.09.

As for U34A G36C, the self-cleavage was 0.03.

On to U34A G36U, for which the self-cleavage stood at 0.04.

For the variant U34A A39G, the self-cleavage came to 0.05.

For U34A A39C, the self-cleavage stood at 0.12.

Turning to U34A A39U, the self-cleavage was 0.06.

For U34G C46U, the self-cleavage was found to be 0.19.

As to U34G C46G, the self-cleavage stood at 0.14.

Consider U34G C46A, for which the self-cleavage was found to be 0.18.

G35U: the self-cleavage was 0.16.

With G35C, the self-cleavage worked out at 0.11.

Turning to G35A, the self-cleavage is 0.16.

Consider G35C U38G, for which the self-cleavage was 0.02.

As for G35C U38C, the self-cleavage stood at 0.05.

For G35C U38A, the self-cleavage is 0.16.

Take G35A C45G: the self-cleavage turned out to be 0.13.

For the variant G35A C45U, the self-cleavage was determined as 0.13.

For G35A C45A, the self-cleavage is 0.13.

Turning to G33C U43A, the self-cleavage came to 0.12.

Regarding G33C U43G, the self-cleavage stood at 0.01.

For G33C U43C, the self-cleavage stood at 0.03.

Take G35A A41G: the self-cleavage was 0.05.

With G35A A41C, the self-cleavage is 0.04.

In the case of G35A A41U, the self-cleavage was determined as 0.14.

With U34A C37A, the self-cleavage worked out at 0.08.

On to U34A C37U, for which the self-cleavage is 0.04.

Regarding U34A C37G, the self-cleavage amounted to 0.04.

Take U34C A39G: the self-cleavage came to 0.04.

For U34C A39U, the self-cleavage was found to be 0.07.

Consider U34C A39C, for which the self-cleavage was found to be 0.09.

Take G33U C45G: the self-cleavage stood at 0.07.

For the variant G33U C45A, the self-cleavage is 0.05.

As for G33U C45U, the self-cleavage is 0.08.

In the case of G36C, the self-cleavage is 0.1.

G36U: the self-cleavage was determined as 0.08.

For the variant G36A, the self-cleavage is 0.2.

Consider U34A A41U, for which the self-cleavage was found to be 0.05.

Turning to U34A A41G, the self-cleavage came to 0.05.

Turning to U34A A41C, the self-cleavage came to 0.03.

As to G36C G40A, the self-cleavage is 0.09.

For G36C G40C, the self-cleavage turned out to be 0.08.

In the case of G36C G40U, the self-cleavage came out at 0.18.

As to G36A C37G, the self-cleavage was determined as 0.05.

Consider G36A C37A, for which the self-cleavage stood at 0.11.

As for G36A C37U, the self-cleavage is 0.31.

As to U34G G35A, the self-cleavage was determined as 0.06.

In the case of U34G G35C, the self-cleavage turned out to be 0.12.

With U34G G35U, the self-cleavage stood at 0.07.

On to U34C A41U, for which the self-cleavage was determined as 0.06.

In the case of U34C A41C, the self-cleavage stood at 0.05.

Consider U34C A41G, for which the self-cleavage was 0.07.
